Values of other authors as cited in publication PMC5264612.

Columns and labels:
MftA = MftA (UniProt P9WJ80)
MftC = MftC (UniProt P9WJ78)
Sequence of UniProt P9WJ78 (P9WJ78 whole entry): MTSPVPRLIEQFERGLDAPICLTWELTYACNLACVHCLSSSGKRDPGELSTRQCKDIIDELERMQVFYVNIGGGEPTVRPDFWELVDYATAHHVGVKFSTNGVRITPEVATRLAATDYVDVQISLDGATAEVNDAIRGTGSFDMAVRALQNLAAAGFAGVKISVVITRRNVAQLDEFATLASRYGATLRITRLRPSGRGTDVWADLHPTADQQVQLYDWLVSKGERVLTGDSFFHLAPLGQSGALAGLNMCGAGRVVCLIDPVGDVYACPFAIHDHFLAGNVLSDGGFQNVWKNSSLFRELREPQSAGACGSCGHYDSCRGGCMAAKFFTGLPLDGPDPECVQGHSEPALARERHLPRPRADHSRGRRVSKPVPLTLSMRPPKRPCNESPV

Sequence of UniProt P9WJ80 (P9WJ80 whole entry): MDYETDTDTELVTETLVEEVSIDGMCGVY

For MftB (from UniProt A0PM48), the Kd (MftA) is listed as 120 nM and the Kd (MftC) is listed as 2000 nM.
